According to the supplement of paper PMC10126150:
± gives the standard deviation of the averaged measurements.

test system: ATP; assay: switch fluorescence ratio, 500 uM ATP over buffer (Cy3 cluster intensity, sum of 5 cycles each) (fold (ratio)); higher = stronger signal-on switching upon ATP binding; sequences stand for … in TCGTCGGCAGCGTCAGATGTGTATAAGAGACAGTTTTTTTTTTTTTTTTTTTTTTTTT…TC; details: aptamer strand: ATP DNA aptamer (quencher-CACCTGGGGGAGTATTGCGGAGGAAGG + anchor), 100 nM annealed; ATP concentration: 500 uM
How it was run: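 Between each of five buffer/ATP cycles, the flow-cell was stripped with NaOH and re-annealed. Each cycle imaged Cy3-labelled switching-strand clusters, annealed to 100 nM quencher-labelled ATP aptamer on a modified Illumina MiSeq flow-cell, first in selection buffer and then after 15 min with 500 uM ATP at 22 °C. The fluorescence ratio is summed target-cycle over summed buffer-cycle Cy3 intensity per cluster, averaged per switch-domain sequence, with clusters outside 100-1000 RFU excluded.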
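Also: ATP exposure 15 min at 22 °C before imaging.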

Sequence | switch fluorescence ratio
AGGGGCCCGT | 0.99 ± 0.038
AGGGGCGACT | 0.984 ± 0.03
AGGGGCGGGT | 1.23 ± 0.46
AGGGGCGTAA | 1 ± 0.05
AGGGGCGTGC | 0.977 ± 0.015
AGGGGCTATG | 1.01 ± 0.032
AGGGGCTGTG | 0.9991 ± 0.0074
AGGGGGAAAC | 1.01 ± 0.027
AGGGGGAACT | 1.03 ± 0.033
AGGGGGACCC | 1 ± 0.058
AGGGGGAGCT | 1.005 ± 0.0056
AGGGGGAGTG | 0.987 ± 0.036
AGGGGGATTA | 0.993 ± 0.019
AGGGGGCCTT | 1.0113 ± 0.00015
AGGGGGGAAA | 1.01 ± 0.027
AGGGGGGCAG | 0.987 ± 0.032
AGGGGGGGCC | 0.992 ± 0.038
AGGGGGGGCT | 0.985 ± 0.024
AGGGGGGGGG | 1.02 ± 0.072
AGGGGGGTAC | 0.991 ± 0.041
AGGGGGGTTC | 0.994 ± 0.023
AGGGGGTACA | 1.01 ± 0.016
AGGGGGTGTT | 1.02 ± 0.015
AGGGGGTTGG | 1 ± 0.032
AGGGGTAAGA | 1.01 ± 0.032
AGGGGTAGGA | 0.99 ± 0.034

Sequence | switch fluorescence ratio
AGGGGTAGGT | 0.982 ± 0.019
AGGGGTATGC | 0.979 ± 0.033
AGGGGTCCGT | 0.969 ± 0.018
AGGGGTGTCC | 1.01 ± 0.029
AGGGGTTAGT | 0.999 ± 0.036
AGGGGTTATA | 1.01 ± 0.024
AGGGGTTTTG | 0.989 ± 0.022
AGGGTAAATA | 1.0193 ± 0.00016
AGGGTAACGG | 0.995 ± 0.028
AGGGTAATCA | 0.993 ± 0.03
AGGGTACCTG | 1.01 ± 0.015
AGGGTACTTG | 1 ± 0.03
AGGGTAGATA | 1 ± 0.044
AGGGTAGATT | 0.977 ± 0.054
AGGGTAGCGA | 1.03 ± 0.017
AGGGTAGCGG | 0.955 ± 0.012
AGGGTAGCTA | 0.958 ± 0.016
AGGGTAGGTC | 1.06 ± 0.087
AGGGTATCGC | 0.9932 ± 0.0065
AGGGTCAATC | 1.04 ± 0.05
AGGGTCAGGT | 1 ± 0.013
AGGGTCGGCG | 1.01 ± 0.027
AGGGTGGAAT | 1.068 ± 0.01
AGGGTGGGG | 0.928 ± 0.076
AGGGTGGGGA | 1.01 ± 0.036
AGGGTGTCGA | 1.02 ± 0.012

Sequence | switch fluorescence ratio
AGGGTGTGCT | 1.015 ± 0.0042
AGGGTTAAGG | 1.017 ± 0.0078
AGGGTTACGA | 0.976 ± 0.038
AGGGTTACGC | 1.04 ± 0.11
AGGGTTATAA | 0.969 ± 0.033
AGGGTTATGA | 0.995 ± 0.021
AGGGTTCTTT | 1 ± 0.029
AGGGTTGAAC | 1 ± 0.023
AGGGTTGCGA | 1.02 ± 0.025
AGGGTTTAAA | 1 ± 0.036
AGGGTTTAGC | 1.02 ± 0.032
AGGGTTTAGT | 1 ± 0.01
AGGTAAGGGC | 1.01 ± 0.015
AGGTAATAGT | 1.03 ± 0.028
AGGTACACCT | 1.08 ± 0.053
AGGTACGAGG | 1.006 ± 0.003
AGGTACGATT | 1.02 ± 0.034
AGGTACGGGA | 1.03 ± 0.074
AGGTACTAGG | 1.036 ± 0.0041
AGGTAGAATA | 0.989 ± 0.031
AGGTAGAGTA | 0.97 ± 0.034
AGGTAGGCGG | 0.969 ± 0.055
AGGTAGGGAA | 0.9928 ± 0.0037
AGGTAGGGGC | 1.02 ± 0.026
AGGTAGGGGT | 1.01 ± 0.02
